Laboratory results published in patent US20230183322A1 (published 2023).

Molecular target: spike protein (Spike, S protein) of SARS-CoV-2 (UniProt P0DTC2 14-1273)
Assay: SPR

B1: antigen-binding unit ABU-174 (antibody, V domains shown)
VH: QVQLQQWGAGLLKPSETLSLTCAVYGGSFSDYYWNWIRRPPGKGLEWIGEITHSGSTNYNPSLKSRVTISVDTSKNQFSLKLSSVTAADTAVYYCARGQGYGRVLLWFGEWGQGTLVTVSS
VL: EIVLTQSPATLSLSPGERATLSCRASQSVSTYLAWYQQKPGQAPRLLIYDASNRATGIPARFSGSGSGTDFTLTISSLEPEDFAVYYCQQRSNWITFGQGTRLEIK
Q: With B1 as the binder, how does the Kd read?
A: 0.285 nM
